# Results from patent US20250340661A1 (JIANGSU HENGRUI PHARMACEUTICALS, published 2025).
# Like-named read-outs stand apart in the source and are kept apart here.
# Assays:
# [1] = target: T1, human CD40 on the cell surface (human, UniProt P25942 21-277); test: flow cytometry on Raji cells, Alexa Fluor 488 anti-human IgG (H+L) detection
# T1 construct: whole, on cells; also called Raji cell surface human CD40; human CD40 on HEK-Blue CD40L cells
# Method: Raji cells were plated at 1.5E5/well, and various concentrations of CD40 antagonistic antibodies were added. The plate was incubated at 4° C. for 1 h. After two washes with FACS buffer (PBS+2% FBS), a secondary antibody (Alexa Flour488 conjugated anti-human IgG (H+L) antibody) was added, and the plate was incubated at 4° C. for 0.5 h.
# After two washes with FACS buffer, the fluorescence intensity on the cell surface was measured by flow cytometry (BD FACS Celesta).
# [2] = target: T1, human CD40 on the cell surface; test: cell-based or functional assay
# [3] = target: T1, human CD40 on the cell surface; test: cell-based or functional assay; remark: listed apart in the source
# [4] = target: T2, his-tagged human CD40 (h-CD40-his) recombinant protein (human, UniProt P25942 21-193); test: SPR (Biacore), antibody captured on anti-human Fc chip, His-tagged CD40 as analyte, 1:1 model
# T2 construct: Bought from Acrobiosystems, Cat. #CD0-H5228; also called His-tagged human CD40 antigen; not shown: His tag
# Method: (§1) The test antibody was affinity-captured on an anti-human Fc chip, and a series of concentrations of His-tagged human or cynomolgus monkey CD40 antigen were allowed to flow over the chip surface. Reaction signals were detected in real time using a Biacore instrument, and thus binding and dissociation curves were obtained. The buffer used in the experiment was HBS-EP+10× buffer solution (Cat. #BR-1006-69, GE) diluted to 1× (pH 7.4) with D. I. Water. Fitting was performed on the data obtained from the experiment using a (1:1) Binding model to obtain affinity values. 9E6-L4H2 and 2F12-L4H2 have similar binding constants for human CD40 to CFZ533, 9E6-L4H2 has a stronger binding affinity for cynomolgus monkey CD40, and 2F12-L4H2 has a slightly weak binding affinity for cynomolgus monkey CD40.
# [5] = target: T3, his-tagged cynomolgus monkey CD40 (cyno-CD40-his) recombinant protein (cynomolgus monkey); test: as above
# T3 construct: Bought from Acrobiosystems, Cat. #CD0-C52H6
# Method: as §1
# [6] = target: T1, human CD40 on the cell surface; test: cell-based or functional assay; remark: listed apart in the source
# human FcRn antigen = human FcRn antigen (human, UniProt P55899 24-297; P61769 21-119); test: SPR (Biacore), antibody captured on anti-human Fab chip, human FcRn as analyte, steady state model
# Method: The test antibody was affinity-captured on an anti-human Fab chip, and a series of concentrations of human FcRn antigen (purchased from AcroBiosystem) were allowed to flow over the chip surface. Reaction signals where the reactions were in a steady state were detected in real time using a Biacore instrument. The buffer used in the experiment was HBS-EP+10× buffer solution (Cat. #BR-1006-69, GE) diluted to 1× (pH 7.4) with D. I. Water. Fitting was performed on the data obtained from the experiment using a steady state binding model to obtain affinity values. The anti-CD40 antibodies carrying the AAYTE mutation have a higher binding affinity for human FcRn than their parent antibodies.
# [7] = target: T1, human CD40 on the cell surface; test: cell-based or functional assay; remark: listed apart in the source
# [8] = target: T1, human CD40 on the cell surface; test: cell-based or functional assay; remark: listed apart in the source
# [9] = target: T1, human CD40 on the cell surface; test: cell-based or functional assay; remark: listed apart in the source
# [10] = target: T1, human CD40 on the cell surface; test: cell-based or functional assay; remark: listed apart in the source
# [11] = target: T1, human CD40 on the cell surface; test: cell-based or functional assay; remark: listed apart in the source
# T2 sequence (P25942 21-193 limits assumed): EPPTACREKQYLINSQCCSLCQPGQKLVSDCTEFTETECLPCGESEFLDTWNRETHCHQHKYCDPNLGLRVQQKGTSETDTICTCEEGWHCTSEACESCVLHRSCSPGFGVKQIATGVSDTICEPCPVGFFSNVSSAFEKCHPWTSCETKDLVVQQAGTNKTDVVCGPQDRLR
# T1 sequence (P25942 21-277): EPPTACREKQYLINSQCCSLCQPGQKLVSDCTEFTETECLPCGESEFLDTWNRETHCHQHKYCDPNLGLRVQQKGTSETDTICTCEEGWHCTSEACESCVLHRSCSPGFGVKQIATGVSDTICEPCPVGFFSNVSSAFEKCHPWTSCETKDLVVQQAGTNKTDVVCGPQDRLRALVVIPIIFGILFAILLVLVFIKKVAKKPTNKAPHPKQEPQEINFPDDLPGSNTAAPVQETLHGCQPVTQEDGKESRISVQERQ
# Sequence of human FcRn antigen (P55899 24-297 limits assumed, chain 1 of 2): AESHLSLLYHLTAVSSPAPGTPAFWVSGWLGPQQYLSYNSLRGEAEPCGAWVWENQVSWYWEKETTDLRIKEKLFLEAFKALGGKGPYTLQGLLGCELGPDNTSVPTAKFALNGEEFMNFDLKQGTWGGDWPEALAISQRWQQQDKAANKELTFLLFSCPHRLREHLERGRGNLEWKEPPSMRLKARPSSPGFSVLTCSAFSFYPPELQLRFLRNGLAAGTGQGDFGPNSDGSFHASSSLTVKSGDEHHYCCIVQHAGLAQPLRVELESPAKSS
# Sequence of human FcRn antigen (P61769 21-119 limits assumed, chain 2 of 2): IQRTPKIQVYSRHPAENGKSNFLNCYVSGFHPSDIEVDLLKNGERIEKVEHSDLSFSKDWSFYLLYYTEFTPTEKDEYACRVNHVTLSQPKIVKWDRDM
binder,measurement,setting,value
"humanized anti-CD40 antibody 9E6-L4H2 (antibody, human IgG1, kappa, N297A, human IgG1 N297A (Eu) heavy chain, human kappa light chain; 9E6-L4 light chain and 9E6-H2 heavy chain) heavy: not shown light: DIQLTQSPSFLSASVGDRVTITCQASEDISSNLAWYQQKPGKPPKLLIFPASNLASGVPSRFSGSGSGTEFTLTISSLQPEDFATYYCQGGYWTSTSNFGQGFGGGTKVEIKRTVAAPSVFIFPPSDEQLKSGTASVVCLLNNFYPREAKVQWKVDNALQSGNSQESVTEQDSKDSTYSLSSTLTLSKADYEKHKVYACEVTHQGLSSPVTKSFNRGEC",EC50,[1],0.87 nM
same,IC50 for the inhibition of CD40 reporter gene cell activity (Assay 2),[2],0.5 nM
same,"IC50 (read off the curve), CD40L-induced TNFα secretion by DC cells",[3],~0.7 nM
same,Kd,[4],0.536 nM
same,koff,[4],0.000221 s⁻¹
same,kon,[4],413000 M⁻¹ s⁻¹
same,Kd,[5],0.121 nM
same,koff,[5],6.23e-05 s⁻¹
same,kon,[5],514000 M⁻¹ s⁻¹
same,"IC50 (read off the curve), CD40L-induced B cell activation (CD19+CD69+ MFI)",[6],~0.2 nM
same,Kd,human FcRn antigen,293 nM
same,"IC50 in DC cell activation assay system, CD80 MFI",[7],3.44 nM
same,"IC50 in DC cell activation assay system, CD86 MFI",[7],3.72 nM
same,"IC50 in DC cell activation assay system, IL-12/23 p40",[7],1.85 nM
same,"IC50 in DC cell activation assay system, TNFα",[7],0.7 nM
same,"B cell activation assay, CD19+CD69+ % IC50",[8],0.14 nM
same,"B cell activation assay, CD19+CD69+ MFI IC50",[8],0.07 nM
same,"IC50 (read off the curve), CD40L-induced IL-12/23 p40 secretion by DC cells",[9],1 to 2 nM
"humanized anti-CD40 antibody 2F12-L4H2 (antibody, human IgG1, kappa, N297A, human IgG1 N297A (Eu) heavy chain, human kappa light chain; 2F12-L4 light chain and 2F12-H2 heavy chain) heavy: not shown light: AFQLTQSPSSLSASVGDRVTITCQASQSISTGLAWYQQKPGKPPKLLIVGASNLASGVPSRFSGSGSGTDFTLTISSLQPEDFATYYCQSYFSSSSTVFGGGTKVEIKRTVAAPSVFIFPPSDEQLKSGTASVVCLLNNFYPREAKVQWKVDNALQSGNSQESVTEQDSKDSTYSLSSTLTLSKADYEKHKVYACEVTHQGLSSPVTKSFNRGEC",EC50,[1],0.589 nM
same,IC50 for the inhibition of CD40 reporter gene cell activity (Assay 1),[2],0.18 nM
same,Kd,[4],2.71 nM
same,koff,[4],0.00206 s⁻¹
same,kon,[4],758000 M⁻¹ s⁻¹
same,Kd,[5],35.3 nM
same,koff,[5],0.414 s⁻¹
same,kon,[5],1.17e+07 M⁻¹ s⁻¹
same,"IC50 (read off the curve), CD40L-induced IL-12/23 p40 secretion by DC cells",[10],~0.7 nM
same,Kd,human FcRn antigen,279 nM
same,"IC50 in DC cell activation assay system, CD80 MFI",[7],0.78 nM
same,"IC50 in DC cell activation assay system, CD86 MFI",[7],0.52 nM
same,"IC50 in DC cell activation assay system, IL-12/23 p40",[7],0.68 nM
same,"IC50 in DC cell activation assay system, TNFα",[7],0.3 nM
same,"IC50 (read off the curve), CD40L-induced TNFα secretion by DC cells",[11],~0.4 nM
same,"B cell activation assay, CD19+CD69+ % IC50",[8],0.04 nM
same,"B cell activation assay, CD19+CD69+ MFI IC50",[8],0.03 nM
"humanized anti-CD40 antibody 2F12-L4H2-AAYTE (antibody, human IgG1, kappa, L234A L235A, light chain unchanged from 2F12-L4H2) heavy: EVTVKESGPVLVKPTETLTLTCTVSGFSLSSYGVSWIRQPPGKALEWLGGIGSDGSAYYASWAKSRLTISRDTNLKQVVLTMTNMDPVDTATYYCARGGITVYAMWGQGTLVTVSSASTKGPSVFPLAPSSKSTSGGTAALGCLVKDYFPEPVTVSWNSGALTSGVHTFPAVLQSSGLYSLSSVVTVPSSSLGTQTYICNVNHKPSNTKVDKKVEPKSCDKTHTCPPCPAPEAAGGPSVFLFPPKPKDTLYITREPEVTCVVVDVSHEDPEVKFNWYVDGVEVHNAKTKPREEQYNSTYRVVSVLTVLHQDWLNGKEYKCKVSNKALPAPIEKTISKAKGQPREPQVYTLPPSREEMTKNQVSLTCLVKGFYPSDIAVEWESNGQPENNYKTTPPVLDSDGSFFLYSKLTVDKSRWQQGNVFSCSVMHEALHNHYTQKSLSLSPGK light: AFQLTQSPSSLSASVGDRVTITCQASQSISTGLAWYQQKPGKPPKLLIVGASNLASGVPSRFSGSGSGTDFTLTISSLQPEDFATYYCQSYFSSSSTVFGGGTKVEIKRTVAAPSVFIFPPSDEQLKSGTASVVCLLNNFYPREAKVQWKVDNALQSGNSQESVTEQDSKDSTYSLSSTLTLSKADYEKHKVYACEVTHQGLSSPVTKSFNRGEC","IC50 (read off the curve), CD40L-induced IL-12/23 p40 secretion by DC cells",[10],~0.6 nM
same,Kd,human FcRn antigen,44.2 nM
same,"IC50 (read off the curve), CD40L-induced TNFα secretion by DC cells",[11],~0.3 nM
